Results on 39 molecules are retold here after PMC10681739, “High-throughput data and modeling reveal insights into the mechanisms of cooperative DNA-binding by transcription factor proteins”.

The target of this data set is T1, ETS1 (Homo sapiens, UniProt P14921).
T1 sequence: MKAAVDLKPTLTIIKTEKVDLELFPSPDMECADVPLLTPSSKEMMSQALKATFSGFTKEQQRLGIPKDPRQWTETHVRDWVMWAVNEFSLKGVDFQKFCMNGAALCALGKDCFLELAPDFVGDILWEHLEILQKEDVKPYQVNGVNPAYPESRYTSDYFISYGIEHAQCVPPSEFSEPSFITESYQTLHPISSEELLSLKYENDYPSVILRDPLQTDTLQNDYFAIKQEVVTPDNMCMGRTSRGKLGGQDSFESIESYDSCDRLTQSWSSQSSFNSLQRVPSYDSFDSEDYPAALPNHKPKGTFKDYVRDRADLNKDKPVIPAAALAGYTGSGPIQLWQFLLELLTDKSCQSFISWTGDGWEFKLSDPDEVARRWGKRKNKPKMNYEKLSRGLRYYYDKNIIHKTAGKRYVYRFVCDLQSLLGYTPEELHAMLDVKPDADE
In words: gcPBM; 1 nM ETS1. Conditions: tags: N-terminal GST (pDEST15), kept (PMC6008103); label: surface-attached array probe.

B1: Table S2 B row 1511 (dsDNA)
DNA 1: GCACCGTGGCACTTCCGCGAGCGCCGCTGGCCCTGC
DNA 2: GCAGGGCCAGCGGCGCTCGCGGAAGTGCCACGGTGC
B1: the binding signal is 2410 PBM fluorescence, median of replicate spots.

B2: Table S2 B row 1285 (dsDNA)
DNA 1: TTAAACACGGAAGTGCATCGGTTGTTGTAGTTATTC
DNA 2: GAATAACTACAACAACCGATGCACTTCCGTGTTTAA
As to B2, the binding signal was 2090 PBM fluorescence, median of replicate spots.

B3: Table S2 B row 1696 (dsDNA)
DNA 1: CTCATCAGTCATCCGGCTGGACTGCAGGAGCTCTCC
DNA 2: GGAGAGCTCCTGCAGTCCAGCCGGATGACTGATGAG
B3: the binding signal is 1700 PBM fluorescence, median of replicate spots.

B4: Table S2 B row 3457 (dsDNA)
DNA 1: CCACTGCCGGAAGGGGAACTCTGGGGGTGCGCGAGT
DNA 2: ACTCGCGCACCCCCAGAGTTCCCCTTCCGGCAGTGG
As to B4, the binding signal was 2580 PBM fluorescence, median of replicate spots.

B5: Table S2 B row 56 (dsDNA)
DNA 1: CAGAGAAACAGGAAGAACAGTGCTTTCAACTGAAAT
DNA 2: ATTTCAGTTGAAAGCACTGTTCTTCCTGTTTCTCTG
Take B5: the binding signal is 2500 PBM fluorescence, median of replicate spots.

B6: Table S2 B row 618 (dsDNA)
DNA 1: GCGCAAGGATCCGGTTTGTTCTGGTGTGGGGAGGGG
DNA 2: CCCCTCCCCACACCAGAACAAACCGGATCCTTGCGC
Regarding B6, the binding signal was 2310 PBM fluorescence, median of replicate spots.

B7: Table S2 B row 1905 (dsDNA)
DNA 1: ACTTCCAGGAAGCCCCATAGTCCAGAAACCTACACA
DNA 2: TGTGTAGGTTTCTGGACTATGGGGCTTCCTGGAAGT
With B7, the binding signal was 2110 PBM fluorescence, median of replicate spots.

B8: Table S2 B row 606 (dsDNA)
DNA 1: TCCGGAAGTCGGAGGAACACCCCAGCCGGCGCAGCC
DNA 2: GGCTGCGCCGGCTGGGGTGTTCCTCCGACTTCCGGA
Regarding B8, the binding signal is 2610 PBM fluorescence, median of replicate spots.

B9: Table S2 B row 4071 (dsDNA)
DNA 1: ATGGAAATGTCGTTAAGAACTTCCTCTTTTACTAGA
DNA 2: TCTAGTAAAAGAGGAAGTTCTTAACGACATTTCCAT
Take B9: the binding signal is 2700 PBM fluorescence, median of replicate spots.

B10: Table S2 B row 1455 (dsDNA)
DNA 1: AGTGAGCTTCCTCCTGAGGCCTGAGGCAACCCCAGG
DNA 2: CCTGGGGTTGCCTCAGGCCTCAGGAGGAAGCTCACT
As for B10, the binding signal was 1620 PBM fluorescence, median of replicate spots.

B11: Table S2 B row 528 (dsDNA)
DNA 1: CGAACTACATCCTCTGAGGTGTAGCTTTTTGGCCTG
DNA 2: CAGGCCAAAAAGCTACACCTCAGAGGATGTAGTTCG
As to B11, the binding signal is 2040 PBM fluorescence, median of replicate spots.

B12: Table S2 B row 3942 (dsDNA)
DNA 1: GAAATTTCCGCTTTCTTTCTGCAGCAGGAACCTCGG
DNA 2: CCGAGGTTCCTGCTGCAGAAAGAAAGCGGAAATTTC
With B12, the binding signal is 21200 PBM fluorescence, median of replicate spots.

B13: Table S2 B row 1858 (dsDNA)
DNA 1: TGGCTTCCTGTCTGTCCTTCATCAGCCCAGAGAGGC
DNA 2: GCCTCTCTGGGCTGATGAAGGACAGACAGGAAGCCA
Regarding B13, the binding signal is 20600 PBM fluorescence, median of replicate spots.

B14: Table S2 B row 1261 (dsDNA)
DNA 1: ACTCCAGAGGAAGTGGCAAGACGAGCGCGGCAACGG
DNA 2: CCGTTGCCGCGCTCGTCTTGCCACTTCCTCTGGAGT
As to B14, the binding signal is 2240 PBM fluorescence, median of replicate spots.

B15: Table S2 B row 3568 (dsDNA)
DNA 1: GAACCCCAAGTTCCGGCTGGCACTGCGCCGGAGCCT
DNA 2: AGGCTCCGGCGCAGTGCCAGCCGGAACTTGGGGTTC
Consider B15, for which the binding signal was 2450 PBM fluorescence, median of replicate spots.

B16: Table S2 B row 2398 (dsDNA)
DNA 1: GCTTTGCAGTTTCCTCTATGGAACACCAGACACAGT
DNA 2: ACTGTGTCTGGTGTTCCATAGAGGAAACTGCAAAGC
For B16, the binding signal was 2540 PBM fluorescence, median of replicate spots.

B17: Table S2 B row 269 (dsDNA)
DNA 1: AGAAAAGGAAATGGTGGGCTGCACACCCCAGCTCAC
DNA 2: GTGAGCTGGGGTGTGCAGCCCACCATTTCCTTTTCT
Consider B17, for which the binding signal was 1890 PBM fluorescence, median of replicate spots.

B18: Table S2 B row 591 (dsDNA)
DNA 1: CACCTCCTACTTCCCCCCGCTGATAACTACCAACCC
DNA 2: GGGTTGGTAGTTATCAGCGGGGGGAAGTAGGAGGTG
For B18, the binding signal was 1740 PBM fluorescence, median of replicate spots.

B19: Table S2 B row 2614 (dsDNA)
DNA 1: GGCTTCCGCGCCTGCAGAACTACAGCTCCCAGAAGG
DNA 2: CCTTCTGGGAGCTGTAGTTCTGCAGGCGCGGAAGCC
B19: the binding signal is 2000 PBM fluorescence, median of replicate spots.

B20: Table S2 B row 1189 (dsDNA)
DNA 1: TCCAGCGGAAGGGGGCATCTTTACGGCAGAGGCAGC
DNA 2: GCTGCCTCTGCCGTAAAGATGCCCCCTTCCGCTGGA
As for B20, the binding signal is 1600 PBM fluorescence, median of replicate spots.

B21: Table S2 B row 1848 (dsDNA)
DNA 1: TCCCGGGGAGGAAGTGGCGAGAATTCGGGGGTGGGC
DNA 2: GCCCACCCCCGAATTCTCGCCACTTCCTCCCCGGGA
As for B21, the binding signal was 2460 PBM fluorescence, median of replicate spots.

B22: Table S2 B row 1694 (dsDNA)
DNA 1: CCCTTCCTGAGGGCAAGGCGAGGGCACCTACAGCCT
DNA 2: AGGCTGTAGGTGCCCTCGCCTTGCCCTCAGGAAGGG
Turning to B22, the binding signal is 1830 PBM fluorescence, median of replicate spots.

B23: Table S2 B row 3076 (dsDNA)
DNA 1: AGGCCTCGCTTCCTCTCCTGAGCACACCCTGCAGCT
DNA 2: AGCTGCAGGGTGTGCTCAGGAGAGGAAGCGAGGCCT
B23: the binding signal is 2200 PBM fluorescence, median of replicate spots.

B24: Table S2 B row 3693 (dsDNA)
DNA 1: ACCAAAACACATCCTGGGGCCCCTCACAATTAGTGA
DNA 2: TCACTAATTGTGAGGGGCCCCAGGATGTGTTTTGGT
In the case of B24, the binding signal was 2280 PBM fluorescence, median of replicate spots.

B25: Table S2 B row 1649 (dsDNA)
DNA 1: CCCCCACATCCTGTTTGGTTAGTGGGACACCTCAAC
DNA 2: GTTGAGGTGTCCCACTAACCAAACAGGATGTGGGGG
Consider B25, for which the binding signal was 23400 PBM fluorescence, median of replicate spots.

B26: Table S2 B row 1838 (dsDNA)
DNA 1: GTACGTTTCCTCATTGACTGGCCAACGACTATCATG
DNA 2: CATGATAGTCGTTGGCCAGTCAATGAGGAAACGTAC
For B26, the binding signal was 2340 PBM fluorescence, median of replicate spots.

B27: Table S2 B row 2632 (dsDNA)
DNA 1: TACGTCACTTCCGGGCCGCCGTCCTGCAGGCAAGGG
DNA 2: CCCTTGCCTGCAGGACGGCGGCCCGGAAGTGACGTA
As for B27, the binding signal was 21800 PBM fluorescence, median of replicate spots.

B28: Table S2 B row 1194 (dsDNA)
DNA 1: TGAGTTTTGTTTCCGATTCACCTCAGAAGATACTTT
DNA 2: AAAGTATCTTCTGAGGTGAATCGGAAACAAAACTCA
Consider B28, for which the binding signal is 1570 PBM fluorescence, median of replicate spots.

B29: Table S2 B row 1406 (dsDNA)
DNA 1: GCACACACACATCCTCCCGGCCCGGCCGCCGCCGCT
DNA 2: AGCGGCGGCGGCCGGGCCGGGAGGATGTGTGTGTGC
Regarding B29, the binding signal was 2180 PBM fluorescence, median of replicate spots.

B30: Table S2 B row 713 (dsDNA)
DNA 1: CCCTTCCGCGTGGGTTGCACCTGCTAATCACAGAGC
DNA 2: GCTCTGTGATTAGCAGGTGCAACCCACGCGGAAGGG
B30: the binding signal is 1660 PBM fluorescence, median of replicate spots.

B31: Table S2 B row 1755 (dsDNA)
DNA 1: CAGAAAGAGGAAATGATGCGAGTCCACACCGAAGGC
DNA 2: GCCTTCGGTGTGGACTCGCATCATTTCCTCTTTCTG
B31: the binding signal was 2640 PBM fluorescence, median of replicate spots.

B32: Table S2 B row 1819 (dsDNA)
DNA 1: CCGATTTCCCCGGACGTGGTGAGACGGCGCTTCGTC
DNA 2: GACGAAGCGCCGTCTCACCACGTCCGGGGAAATCGG
With B32, the binding signal is 1790 PBM fluorescence, median of replicate spots.

B33: Table S2 B row 3763 (dsDNA)
DNA 1: GCGCCCCGTCCTTCCGCAGCCCAAGCGCCTCTTCCC
DNA 2: GGGAAGAGGCGCTTGGGCTGCGGAAGGACGGGGCGC
Consider B33, for which the binding signal was 1510 PBM fluorescence, median of replicate spots.

B34: Table S2 B row 2482 (dsDNA)
DNA 1: TGCGACGGAAGCAGGAACTTGCTAACTACAAAACCC
DNA 2: GGGTTTTGTAGTTAGCAAGTTCCTGCTTCCGTCGCA
On to B34, for which the binding signal is 1960 PBM fluorescence, median of replicate spots.

B35: Table S2 B row 2348 (dsDNA)
DNA 1: CAAAAGTGCTTCCTCTCGAGGGGTTGTAGTTCTTAC
DNA 2: GTAAGAACTACAACCCCTCGAGAGGAAGCACTTTTG
Consider B35, for which the binding signal was 1960 PBM fluorescence, median of replicate spots.

B36: Table S2 B row 992 (dsDNA)
DNA 1: TATCGACAAAAGTTCCGGCCCGCGGCAGCGGAGGGA
DNA 2: TCCCTCCGCTGCCGCGGGCCGGAACTTTTGTCGATA
Turning to B36, the binding signal is 1930 PBM fluorescence, median of replicate spots.

B37: Table S2 B row 4047 (dsDNA)
DNA 1: CCGCTCTTCCTGGAGGTCTCTTGGCCGCTCACCCTC
DNA 2: GAGGGTGAGCGGCCAAGAGACCTCCAGGAAGAGCGG
As for B37, the binding signal is 1540 PBM fluorescence, median of replicate spots.

B38: Table S2 B row 3748 (dsDNA)
DNA 1: GATTCATATCCTCCTCTATGCAACGACAGCATCTTC
DNA 2: GAAGATGCTGTCGTTGCATAGAGGAGGATATGAATC
For B38, the binding signal was 2160 PBM fluorescence, median of replicate spots.

B39: Table S2 B row 753 (dsDNA)
DNA 1: AGGGACTTCCGGTGACCAGAGCACTAGCGCCGTAAA
DNA 2: TTTACGGCGCTAGTGCTCTGGTCACCGGAAGTCCCT
Turning to B39, the binding signal was 55700 PBM fluorescence, median of replicate spots.
